Experimental data as given in CN101627111A (CENTOCOR INC, dated 2010).

Molecular target: human tissue factor on HCT 116 human colon carcinoma cells (human, UniProt P13726 33-295)
Assay: cell-based or functional assay

ADCC potency (EC50 and maximal lysis) against C463-derived CNTO 860: 20 to 60 倍
B1: CNTO 860 produced in YB2/0-derived host cell line C1083B (antibody, human IgG1, kappa, V domains shown)
VH: QVQLVESGGGVVQPGRSLRLSCKASGFNIKDYYMHWVRQAPGKGLEWIGLIDPENGNTIYDPKFQGRFTISADNSKNTLFLQMDSLRPEDTAVYYCARDNSYYFDYWGQGTPVTVSS
VL: DIQMTQSPSSLSASVGDRVTITCKASQDIRKYLNWYQQKPGKAPKLLIYYATSLADGVPSRFSGSGSGTDYTFTISSLQPEDIATYYCLQHGESPYTFGQGTKLEITR
modifications: Fc N-glycan about 40% fucosylated
